This is an account of results in article PMC8963248, “Natural Human Immunity Against Staphylococcal Protein A Relies on Effector Functions Triggered by IgG3” (Frontiers in Immunology, 2022).

Sequences and labels used below:
B1: anti-SpA monoclonal antibody mAb-2 in IgG3 scaffold (antibody, V domains shown)
VH: QVQLVQSGAEVKKPGASVKVSCKASGYTFTRYYMHWVRQAPGQGLEWMGWINPPSGGTNYAQKFQGRVTMTRDTSTSTVYMELSSLRSEDTAVYYCARDPPMGQGMDVWGQGTLVTVSS
VL: EIVLTQSPATLSVSPGERATLSCRASQSISSYLNWYQQKPGQAPRLLIYAASSLQSGIPARFSGSGSGTEFTLTISSLQSEDFAVYYCQQSFVAPFTFGGGTKVEIK
notes: heavy variable region; human IgG3 scaffold (heavy constant region); light chain; IgG3; also called IgG3 mAb-2; source: Expi293, transient transfection, purified (protein G)
B2: anti-SpA monoclonal antibody mAb-3 in IgG3 scaffold (antibody, V domains shown)
VH: QVQLVQSGAEVKKPGASVKVSCKASGYTFSHYYMHWVRQAPGQGLEWMGIINPRYGSTSYAQKFQGRVTMTRDTSTSTVYMELSSLRSEDTAVYYCARDGEVGARDLGWFDPWGQGTLVTVSS
VL: EIVLTQSPATLSVSPGERATLSCRASQSVSSNLAWYQQKPGQAPRLLIYGASTRATGIPARFSGSGSGTEFTLTISSLQSEDFAVYYCQQYTPLPWTFGGGTKVEIK
notes: heavy variable region; human IgG3 scaffold (heavy constant region); light chain; IgG3; also called IgG3 mAb-3; source: Expi293, transient transfection, purified (protein G)
B3: anti-SpA monoclonal antibody mAb-1 in IgG3 scaffold (antibody, V domains shown)
VH: EVQLVESGGGLVQPGGSLRLSCAASGFTFSTYGMSWVRQAPGKGLEWVSSITGSGRSTFYADSVKGRFTISRDNSTNTLSLQMNSLRAEDTAVYYCARSPADIVTGYYPWWFDLWGQGTLVTVSS
VL: DIQMTQSPSSLSASIGDRVTITCRASQSINTYLNWYQQKPGKAPRLLIAGASSLQSGVPSRFSGSGSGTDFTLTISSLQPEDFATYYCQQANSFPLTFGQGTRLEIK
notes: heavy variable region; human IgG3 scaffold (heavy constant region); light chain; IgG3; also called IgG3 mAb-1; source: Expi293, transient transfection, purified (protein G)

The experiment deals with T1, SpA wild type (Staphylococcal protein A, recombinant) (Staphylococcus aureus NCTC 8325, UniProt P02976, biotinylated (only for the beads of the phagocytosis assays); chemically coupled by amines to MagPlex beads in the Luminex assays).
T1 construct: Staphylococcal protein A (SpA) of S. aureus strain NCTC 8325, locus tag SAOUHSC_00069; In the functional rows on bacteria the SpA is that on S. aureus USA300 lac, not this recombinant protein; also called SpAwt
T1 sequence (P02976 37-485): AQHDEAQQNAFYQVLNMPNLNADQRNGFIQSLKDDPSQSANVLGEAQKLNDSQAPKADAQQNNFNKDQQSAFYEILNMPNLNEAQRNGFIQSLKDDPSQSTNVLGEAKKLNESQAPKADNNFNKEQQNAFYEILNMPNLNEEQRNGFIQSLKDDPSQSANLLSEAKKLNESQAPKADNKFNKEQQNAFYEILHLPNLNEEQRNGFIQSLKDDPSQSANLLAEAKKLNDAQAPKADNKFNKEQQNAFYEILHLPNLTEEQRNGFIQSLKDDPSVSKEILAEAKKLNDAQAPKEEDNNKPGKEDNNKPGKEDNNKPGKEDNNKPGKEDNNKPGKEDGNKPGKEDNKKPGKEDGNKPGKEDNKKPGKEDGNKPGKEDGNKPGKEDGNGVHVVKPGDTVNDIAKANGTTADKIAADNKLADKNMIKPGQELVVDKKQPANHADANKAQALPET
Nature of the experiment: Luminex bead displacement assay; SpAwt coupled to MagPlex beads, saturated with biotinylated human IgGs (8 µg/mL, 30 min, room temperature), washed, then incubated with serially diluted IgG3 mAbs 1-4 or IgG3 isotype control in PBS; remaining human IgGs revealed with streptavidin-PE. The conditions noted are these: both partners purified.
Consider B1, for which the binding result is “binds”.

Turning to B2, the binding result was “binds”. For B3, the binding result is given as “binds”.
